Results on one protein are retold here after patent US7173007 (University of California, dated 2007).

The data set concerns the molecule itself. Briefly: SDS-PAGE / Western blot, self-association. The method, then:
SDS-PAGE and immunoblotting. The purity of cathelin-like or hCAP18/LL-37 protein was first confirmed by SDS-PAGE followed by Coomassie blue and silver staining. For Western blot, protein was separated by SDS-PAGE and was then transferred to nitrocellulose membranes using the Bio-Rad system. Membranes were blocked for 1 h at room temperature with 0.1% low fat milk in 50 mM Tris-HCl, pH 7.5, 150 mM NaCl, 0.2% Tween-20, and were probed overnight at […] with chicken polyclonal anticathelin-like antibodies (1:15,000) to detect cathelin-like protein or with rabbit anti-LL-37 antibodies (1:6000) to detect full-length hCAP18/LL-37, followed by extensive washing. Immunoreactive materials were detected by enhanced chemiluminescence using horseradish peroxidase conjugated antichicken antibodies (1:20,000) or horseradish peroxidase conjugated antirabbit antibodies (1:5000).
In general terms: In western blotting, separated proteins are transferred to a membrane and probed.

B1: His-tagged cathelin-like fusion protein (before enterokinase digestion), approximately 16 kDa (other, not shown: small tags and cut ends)
chain: QVLSYKEAVLRAIDGINQRSSDANLYRLLDLDPRPTMDGDPDTPKPVSFTVKETVCPRTTQQSPEDCDFKKDGLVKRCMGTVTLNQARGSFDISCDKDNKR
notes: also called His-tagged cathelin-like protein before cleavage; cathelin-like protein before digestion with enterokinase
Take B1: the binding result is listed as “binds”.
